Source: patent US20110135657A1 (published 2011)

B1: 17C3 (antibody, human IgG2, lambda, V domains shown)
VH: QVTLKESGPVLVKPTETLTLTCTVSGFSLSNARMGVSWIRQPPGKALEWLAHIFSNDEKSYSTSLKSRLTISKDTSKSQVVLTMTNMDPVDTATYYCARILLLGAYYYYGMDVWGQGTTVTVSS
VL: SYVLTQPPSVSVAPGQTARITCGGNNIGSQSVHWYQQKPGQAPVLVVYDDSDRPSGIPERFSGSNSGNTATLTISRVEAGDEADYYCQVWDSSSDHVVFGGGTKLTVLG
notes: fully human monoclonal antibody from XenoMouse hybridoma
B2: 40D2 (antibody, human IgG2, kappa, V domains shown)
VH: QVQLQESGPGLVKPSQTLSLTCTVSGGSISSGGYNWSWIRQHPGKGLEWIGNIYYSGSTYYNPSLKSRVTISVDTSKNQFSLKLRSVTAADTAVYYCARENIVVIPAAIFAGWFDPWGQGTLVTVSS
VL: DFVMTQTPLSLSVTPGQPASISCKSSQSLLQSDGKTYLYWYLQKPGQPPHLLIYEVSNRFSGVPDRFSGSGSGTDFTLKISRVEAEDVGVYYCMQSIQLPRTFGQGTKVEIKR
notes: fully human monoclonal antibody
B3: 37D3 (antibody, human IgG2, kappa, V domains shown)
VH: EVHLVESGGGLAKPGGSLRLSCAASGFTFRNAWMSWVRQAPGKGLEWVGRIKSKTDGGTTDYAAPVKGRFTISRDDSKNTLYLQMNSLKTEDTAEYYCITDRVLSYYAMAVWGQGTTVTVSS
VL: DIVMTQSPLSLPVTPGEPASISCRSSQSLLHSNGYNFLDWYLQKPGQSPQLLIYLGSDRASGVPDRFSGSGSGTEFTLKISRVEAEDVGLYYCMQALQTPCSFGQGTKLEIKR
notes: as for B2
B4: 18G1 (antibody, human IgG2, kappa, V domains shown)
VH: EVQLLESGGGLVQPGGSLRLSCAASRFTFSTYAMSWVRQAPGKGLEWVSGISGSGVSTHYADSVKGRFTISRDNSKNTLYLQMNSLRAEDTAVYYCAKSLIVVIVYALDHWGQGTLVTVSS
VL: EIVLTQSPGTLSLSPGERATLSCRASQNFDSSYLAWYQQKPGQAPRLLIYGTSSRATGIPDRFSGIGSGTDFTLTINRLEPEDFAMYYCQQYGGSPLTFGGGTEVEIKR
notes: fully human monoclonal antibody; full chains H5/L4
B5: 46D11 (antibody, human IgG2, kappa, V domains shown)
VH: QVTLKEAGPVLVKPTETLTLTCTVSGFSLSNARMGVNWIRQPPGKALEWLAHIFSNDEKSYSTSLKSRLTISKDTSKSQVVLTMTNMDPVDTATYYCARVRIAGDYYYYYGMDVWGQGTTVTVSS
VL: DIQMTQSPSSVSASVGDRVTITCRASQGISIWLAWYQQKPGKAPKLLIYAASSLQSGVPSRFSGSGSGTDFTLTISSLQPEDFATYYCQQANDFPITFGQGTRLEIKR
notes: fully human monoclonal antibody; full chains H13/L13
B6: 16H7 variant, heavy chain E16Q + V24F + I83T (antibody, human IgG2, lambda)
heavy: QVTLKESGPVLVKPTQTLTLTCTFSGFSLNNARMGVSWIRQPPGKALEWLAHIFSNDEKSYSTSLKSRLTISKDTSKSQVVLTMTNMDPVDTATYYCARSVVTGGYYYDGMDVWGQGTTVTVSSASTKGPSVFPLAPCSRSTSESTAALGCLVKDYFPEPVTVSWNSGALTSGVHTFPAVLQSSGLYSLSSVVTVPSSNFGTQTYTCNVDHKPSNTKVDKTVERKCCVECPPCPAPPVAGPSVFLFPPKPKDTLMISRTPEVTCVVVDVSHEDPEVQFNWYVDGVEVHNAKTKPREEQFNSTFRVVSVLTVVHQDWLNGKEYKCKVSNKGLPAPIEKTISKTKGQPREPQVYTLPPSREEMTKNQVSLTCLVKGFYPSDIAVEWESNGQPENNYKTTPPMLDSDGSFFLYSKLTVDKSRWQQGNVFSCSVMHEALHNHYTQKSLSLSPGK
light: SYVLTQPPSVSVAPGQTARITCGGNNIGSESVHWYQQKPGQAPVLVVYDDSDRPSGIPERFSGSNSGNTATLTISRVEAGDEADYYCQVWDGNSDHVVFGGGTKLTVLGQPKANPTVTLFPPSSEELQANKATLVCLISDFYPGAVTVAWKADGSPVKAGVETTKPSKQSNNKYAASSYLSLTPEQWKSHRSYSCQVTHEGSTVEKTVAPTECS
B7: 16H7 variant, heavy chain E16Q + V24F + I83T + T119L (antibody, human IgG2, lambda)
heavy: QVTLKESGPVLVKPTQTLTLTCTFSGFSLNNARMGVSWIRQPPGKALEWLAHIFSNDEKSYSTSLKSRLTISKDTSKSQVVLTMTNMDPVDTATYYCARSVVTGGYYYDGMDVWGQGTLVTVSSASTKGPSVFPLAPCSRSTSESTAALGCLVKDYFPEPVTVSWNSGALTSGVHTFPAVLQSSGLYSLSSVVTVPSSNFGTQTYTCNVDHKPSNTKVDKTVERKCCVECPPCPAPPVAGPSVFLFPPKPKDTLMISRTPEVTCVVVDVSHEDPEVQFNWYVDGVEVHNAKTKPREEQFNSTFRVVSVLTVVHQDWLNGKEYKCKVSNKGLPAPIEKTISKTKGQPREPQVYTLPPSREEMTKNQVSLTCLVKGFYPSDIAVEWESNGQPENNYKTTPPMLDSDGSFFLYSKLTVDKSRWQQGNVFSCSVMHEALHNHYTQKSLSLSPGK
light: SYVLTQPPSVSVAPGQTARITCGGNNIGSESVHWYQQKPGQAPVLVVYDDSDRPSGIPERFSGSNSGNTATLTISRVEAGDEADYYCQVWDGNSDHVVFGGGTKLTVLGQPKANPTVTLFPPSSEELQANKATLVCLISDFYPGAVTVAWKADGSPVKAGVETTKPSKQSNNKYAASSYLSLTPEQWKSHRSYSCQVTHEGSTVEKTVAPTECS
B8: 16H7 variant, heavy chain I83T (antibody, human IgG2, lambda, V domains shown)
VH: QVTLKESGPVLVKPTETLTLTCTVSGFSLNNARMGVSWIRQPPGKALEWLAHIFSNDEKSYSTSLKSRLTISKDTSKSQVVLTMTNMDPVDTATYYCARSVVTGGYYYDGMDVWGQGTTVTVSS
VL: SYVLTQPPSVSVAPGQTARITCGGNNIGSESVHWYQQKPGQAPVLVVYDDSDRPSGIPERFSGSNSGNTATLTISRVEAGDEADYYCQVWDGNSDHVVFGGGTKLTVLG
B9: 16H7 variant, heavy chain I83K (antibody, human IgG2, lambda, V domains shown)
VH: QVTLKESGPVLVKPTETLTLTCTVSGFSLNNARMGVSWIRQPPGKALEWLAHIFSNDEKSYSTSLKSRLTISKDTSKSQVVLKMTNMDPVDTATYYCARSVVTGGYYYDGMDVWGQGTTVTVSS
VL: SYVLTQPPSVSVAPGQTARITCGGNNIGSESVHWYQQKPGQAPVLVVYDDSDRPSGIPERFSGSNSGNTATLTISRVEAGDEADYYCQVWDGNSDHVVFGGGTKLTVLG
B10: 22H5 Heavy Chain, Insertion of Y107 (SEQ ID NO 405), as printed in Table 7 (antibody, human IgG2, lambda, V domains shown)
VH: QVTLKESGPVLVKPTETLTLTCTVSGFSLNNARMGVSWIRQPPGKALEWLAHIFSNDEKSYSTSLKSRLTISKDTSKSQVVLIMTNMDPVDTATYYCARSVVTGGYYYYDGMDVWGQGTTVTVSS
VL: SYVLTQPPSVSVAPGQTARITCGGNNIGSQSVHWYQQKPGQAPVLVVYDDSDRPSGIPERFSGSNSGNTATLTISRVEAGDEADYYCQVWDNTSDHVVFGGGTKLTVLG
B11: 16H7 variant, light chain D49A + D91A (antibody, human IgG2, lambda, V domains shown)
VH: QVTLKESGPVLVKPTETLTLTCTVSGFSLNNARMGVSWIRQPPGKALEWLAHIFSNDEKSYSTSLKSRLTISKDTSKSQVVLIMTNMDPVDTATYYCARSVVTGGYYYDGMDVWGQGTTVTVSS
VL: SYVLTQPPSVSVAPGQTARITCGGNNIGSESVHWYQQKPGQAPVLVVYADSDRPSGIPERFSGSNSGNTATLTISRVEAGDEADYYCQVWAGNSDHVVFGGGTKLTVLG
B12: 16H7 variant, heavy chain D88R + P89A + V90E (antibody, human IgG2, lambda, V domains shown)
VH: QVTLKESGPVLVKPTETLTLTCTVSGFSLNNARMGVSWIRQPPGKALEWLAHIFSNDEKSYSTSLKSRLTISKDTSKSQVVLIMTNMRAEDTATYYCARSVVTGGYYYDGMDVWGQGTTVTVSS
VL: SYVLTQPPSVSVAPGQTARITCGGNNIGSESVHWYQQKPGQAPVLVVYDDSDRPSGIPERFSGSNSGNTATLTISRVEAGDEADYYCQVWDGNSDHVVFGGGTKLTVLG
B13: 16H7 variant, heavy chain S100I (antibody, human IgG2, lambda, V domains shown)
VH: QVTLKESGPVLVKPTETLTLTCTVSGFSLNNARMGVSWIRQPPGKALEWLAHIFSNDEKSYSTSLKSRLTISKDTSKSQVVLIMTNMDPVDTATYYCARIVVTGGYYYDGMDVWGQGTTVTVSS
VL: SYVLTQPPSVSVAPGQTARITCGGNNIGSESVHWYQQKPGQAPVLVVYDDSDRPSGIPERFSGSNSGNTATLTISRVEAGDEADYYCQVWDGNSDHVVFGGGTKLTVLG
B14: 16H7 variant, heavy chain E16Q + V24F + I83T + S100I + T119L (antibody, human IgG2, lambda, V domains shown)
VH: QVTLKESGPVLVKPTQTLTLTCTFSGFSLNNARMGVSWIRQPPGKALEWLAHIFSNDEKSYSTSLKSRLTISKDTSKSQVVLTMTNMDPVDTATYYCARIVVTGGYYYDGMDVWGQGTLVTVSS
VL: SYVLTQPPSVSVAPGQTARITCGGNNIGSESVHWYQQKPGQAPVLVVYDDSDRPSGIPERFSGSNSGNTATLTISRVEAGDEADYYCQVWDGNSDHVVFGGGTKLTVLG
B15: 16H7 variant, heavy chain Deletion of Y107 (antibody, human IgG2, lambda, V domains shown)
VH: QVTLKESGPVLVKPTETLTLTCTVSGFSLNNARMGVSWIRQPPGKALEWLAHIFSNDEKSYSTSLKSRLTISKDTSKSQVVLIMTNMDPVDTATYYCARSVVTGGYYDGMDVWGQGTTVTVSS
VL: SYVLTQPPSVSVAPGQTARITCGGNNIGSESVHWYQQKPGQAPVLVVYDDSDRPSGIPERFSGSNSGNTATLTISRVEAGDEADYYCQVWDGNSDHVVFGGGTKLTVLG
B16: 16H7 variant, heavy chain V24F (antibody, human IgG2, lambda, V domains shown)
VH: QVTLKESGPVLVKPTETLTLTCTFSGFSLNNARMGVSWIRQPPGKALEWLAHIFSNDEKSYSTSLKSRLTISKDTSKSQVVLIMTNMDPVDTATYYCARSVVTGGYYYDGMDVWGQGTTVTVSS
VL: SYVLTQPPSVSVAPGQTARITCGGNNIGSESVHWYQQKPGQAPVLVVYDDSDRPSGIPERFSGSNSGNTATLTISRVEAGDEADYYCQVWDGNSDHVVFGGGTKLTVLG
B17: 16H7 variant, heavy chain D88R + P89A + V90E + S100I (antibody, human IgG2, lambda, V domains shown)
VH: QVTLKESGPVLVKPTETLTLTCTVSGFSLNNARMGVSWIRQPPGKALEWLAHIFSNDEKSYSTSLKSRLTISKDTSKSQVVLIMTNMRAEDTATYYCARIVVTGGYYYDGMDVWGQGTTVTVSS
VL: SYVLTQPPSVSVAPGQTARITCGGNNIGSESVHWYQQKPGQAPVLVVYDDSDRPSGIPERFSGSNSGNTATLTISRVEAGDEADYYCQVWDGNSDHVVFGGGTKLTVLG
B18: 16H7 (antibody, human IgG2, lambda, V domains shown)
VH: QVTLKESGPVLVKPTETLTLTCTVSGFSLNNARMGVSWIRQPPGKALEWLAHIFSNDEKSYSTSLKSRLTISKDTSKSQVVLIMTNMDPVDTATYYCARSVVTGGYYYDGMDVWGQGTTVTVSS
VL: SYVLTQPPSVSVAPGQTARITCGGNNIGSESVHWYQQKPGQAPVLVVYDDSDRPSGIPERFSGSNSGNTATLTISRVEAGDEADYYCQVWDGNSDHVVFGGGTKLTVLG
B19: 16H7 variant, light chain D49Y (antibody, human IgG2, lambda, V domains shown)
VH: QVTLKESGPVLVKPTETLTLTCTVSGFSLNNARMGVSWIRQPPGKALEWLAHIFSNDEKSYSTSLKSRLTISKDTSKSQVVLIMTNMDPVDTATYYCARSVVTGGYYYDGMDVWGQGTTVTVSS
VL: SYVLTQPPSVSVAPGQTARITCGGNNIGSESVHWYQQKPGQAPVLVVYYDSDRPSGIPERFSGSNSGNTATLTISRVEAGDEADYYCQVWDGNSDHVVFGGGTKLTVLG
B20: 16H7 variant, heavy chain D109S (antibody, human IgG2, lambda, V domains shown)
VH: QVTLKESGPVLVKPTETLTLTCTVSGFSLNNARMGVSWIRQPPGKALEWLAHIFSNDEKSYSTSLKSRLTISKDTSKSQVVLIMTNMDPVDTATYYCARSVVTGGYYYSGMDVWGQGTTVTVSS
VL: SYVLTQPPSVSVAPGQTARITCGGNNIGSESVHWYQQKPGQAPVLVVYDDSDRPSGIPERFSGSNSGNTATLTISRVEAGDEADYYCQVWDGNSDHVVFGGGTKLTVLG

The binders below were run against T1, soluble human β-Klotho (Biacore, Example 8) (human, UniProt Q86Z14 53-996, limits assumed) (assay: Biacore competition binning; test antibody injected over soluble receptor captured on immobilized 24H11, 17D8 or 1A2.1).
T1 construct: also called soluble β-Klotho
From the text: Soluble human FGFR1c/β-Klotho ECD-Fc complex or β-Klotho was then captured on the immobilized antibody surfaces.
B1: binds. B2: binds. B3: binds. B4: binds. B5: binds.

What follows are binders tested against T2, human FGF21 receptor (FGF21R): full length human FGFR1c and full length human β-Klotho co-expressed at the … (human, UniProt P11362 22-822; Q86Z14 53-1044) (assay: cell-based or functional assay).
For B6, the “EC50 (nM), Erk-phosphorylation, human adipocyte assay” value (from here on “EC50 (nM), Erk-phosphorylation”) was 0.38 nM. B7 was tested, and the “EC50 (nM), Erk-phosphorylation” value was 0.36 nM. In the case of B8, the “EC50 (nM), Erk-phosphorylation” value is reported as 0.73 nM. For B9, the “EC50 (nM), Erk-phosphorylation” value was 0.39 nM. B10 was tested, and the “EC50 (nM), Erk-phosphorylation” value was 0.51 nM. With B11 the “EC50 (nM), Erk-phosphorylation” value was 1.4 nM. In the case of B12, the “EC50 (nM), Erk-phosphorylation” value is reported as 0.35 nM. B13 was tested, and the “EC50 (nM), Erk-phosphorylation” value was 0.17 nM. With B14 the “EC50 (nM), Erk-phosphorylation” value was 0.24 nM. For B15, the “EC50 (nM), Erk-phosphorylation” value was 1.04 nM. In the case of B16, the “EC50 (nM), Erk-phosphorylation” value is reported as 0.75 nM. In the case of B17, the “EC50 (nM), Erk-phosphorylation” value is reported as 0.14 nM. With B18 the “EC50 (nM), Erk-phosphorylation” value was 0.53 nM. B19 was tested, and the “EC50 (nM), Erk-phosphorylation” value was 0.6 nM. B20 was tested, and the “EC50 (nM), Erk-phosphorylation” value was 0.31 nM.

Molecular target: T2, human FGF21 receptor (FGF21R): full …
Assay: cell-based or functional assay
Remark: another data set of the same source
In the case of B18, the “Activity (%) = % of FGF21 activity, luciferase reporter, AM-1/D FGFR1c+β-Klotho Luc clone; antibody combined with isotype IgG2k control” value is reported as 23.5 % of FGF21 activity.
